{"source": "patent US20260226095A1", "about": "(GLYTECH, published 2026)", "binders": {"B1": {"name": "scFv Ab1 (D2B) of synthesis (scFv)", "scFv": "EVKLQESGPGLVKPSQSLSLTCSVTGYSITSGYYWNWIRQFPGNKLEWMGSISFDGNNNYNPSLRNRISITRDTSKNQFFLKLNSVTTEDTATYYCAREGDYYGSSFFTYWGQGTLVTVSSGGGGSGGGGSGGGGSALDIVMTQSPASLSASVGETVTLTCGASENIYGALNWYQRKQGKSPQLLIYGATNLADGMSSRFSGSGSGRQYSLKISSLHPDDVATYYCQNVFRTYTFGGGTKLEIKRAAAHHHHHH", "modifications": "L-pyroglutamic acid (<E) printed at position 1 of segment 1; two disulfide bonds (C22-C96 and C161-C226)", "notes": "Made by full chemical synthesis, 254 residues ending at H254; also called scFv Ab1 synthesis; scFv D2B"}, "B2": {"name": "scFv Ab1 RREF (scFv)", "scFv": "B1 scFv", "notes": "Produced in a prokaryotic system; Contains two tags (Myc and His); not shown: Myc tag present in RREF in addition to the His tag"}}, "molecular_target": "hPSMA (purified and soluble antigen) (human (printed as hPSMA), UniProt Q04609 44-750)", "sequence (Q04609 44-750)": "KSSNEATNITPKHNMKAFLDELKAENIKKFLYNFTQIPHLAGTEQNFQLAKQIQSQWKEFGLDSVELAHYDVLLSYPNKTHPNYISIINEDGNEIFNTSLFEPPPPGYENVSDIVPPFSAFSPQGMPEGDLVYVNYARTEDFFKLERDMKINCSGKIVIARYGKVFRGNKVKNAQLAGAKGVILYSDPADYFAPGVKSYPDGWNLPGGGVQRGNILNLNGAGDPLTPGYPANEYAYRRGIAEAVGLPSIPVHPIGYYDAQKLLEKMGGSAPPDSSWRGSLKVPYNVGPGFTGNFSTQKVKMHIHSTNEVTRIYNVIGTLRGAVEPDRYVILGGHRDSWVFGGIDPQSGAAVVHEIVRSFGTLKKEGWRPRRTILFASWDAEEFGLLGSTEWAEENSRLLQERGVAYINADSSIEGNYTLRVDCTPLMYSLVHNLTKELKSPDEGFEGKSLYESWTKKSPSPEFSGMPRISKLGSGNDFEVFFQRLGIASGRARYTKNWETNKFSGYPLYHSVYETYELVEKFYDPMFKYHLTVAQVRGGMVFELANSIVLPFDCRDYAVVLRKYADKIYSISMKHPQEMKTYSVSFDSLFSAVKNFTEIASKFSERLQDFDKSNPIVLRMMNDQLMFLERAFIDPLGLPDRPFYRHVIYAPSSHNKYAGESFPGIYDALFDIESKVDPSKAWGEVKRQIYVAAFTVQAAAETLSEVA", "assay": "SPR, Biacore T200, standard kinetics, antigen immobilized on CM5 chip", "data": [{"binder": "B1", "values": [{"measurement": "Kd", "value": 12, "unit": "nM"}]}, {"binder": "B2", "values": [{"measurement": "Kd", "value": 27, "unit": "nM"}]}]}
